Data on five molecules can be found in US20230277682A1 (priority 2022, published 2023).

The test has as its system H1N1 A/Puerto Rico/08/1934 influenza virus. The format is cell-based.

B1: mAb11729 (antibody, V domains shown)
VH: QVQLVQSGAEVKKSGSSVKVSCKASGGTFSSYAISWVRQAPGQGLEWMGGIIPIFGTPSYAQKFQDRVTITTDESTSTVYMELSSLRSEDTAVYYCARQQPVYQYNMDVWGQGTTVTVSS
VL: DIQMTQSPSSLSASVGDRVTITCRASQGIRNNLGWYQQKPLKAPKRLIYAASSLQSGVPSRFSGSGSGTEFTLTISSLQPEDFATYYCLQYNNYPWTFGQGTKVEIK
As for B1, the “antiviral activity against H1N1 in vitro” value is recorded as “displays antiviral activity against H1N1 in vitro”.

B2: 11729-HC-Cterm-LLQGA-19b (conjugate)
heavy: QVQLVQSGAEVKKSGSSVKVSCKASGGTFSSYAISWVRQAPGQGLEWMGGIIPIFGTPSYAQKFQDRVTITTDESTSTVYMELSSLRSEDTAVYYCARQQPVYQYNMDVWGQGTTVTVSSLLQGA
VL: B1 VL
modifications: left off: a dimerising Fc or GST
As to B2, the “Fold Increase over Parental Antibody” value was 15.76 fold.

B3: 11729-HC-Cterm-LLQGA-19a (conjugate)
heavy: B2 heavy
VL: B1 VL
modifications: left off: a dimerising Fc or GST
In the case of B3, the “Fold Increase over Parental Antibody” value was found to be 7.75 fold.

B4: 11729-HC-Cterm-LLQGA-19C (conjugate)
heavy: B2 heavy
VL: B1 VL
modifications: left off: a dimerising Fc or GST
For the molecule B4, the “Fold Increase over Parental Antibody” value came out at 28.78 fold.

B5: 11729-HC-Cterm-LLQGA-10b (conjugate)
heavy: B2 heavy
VL: B1 VL
modifications: left off: a dimerising Fc or GST
For B5, the “Fold Increase over Parental Antibody” value worked out at 6.96 fold.
